Sequences and labels used below:
B1: Rafivirus WHWGGF74766 (nucleic acid, listed as Rafivirus sp.)
DNA: TGCGAATTTATTCGCACAGTCTCTTTTCCCCCATCTTGTGTGTGTGATGGGGTAAGCCGCAGAGTAATACCTACTCTGCTGCAAACACACTCACTCTTTTCTATCTACTTTATATCATGTAATAATAAGTAGGGAACATATTCAATTCATATTGTTCATCTCACTGAACCCGCATGAAGGACTGCATTGCATATCCTGGACGAAGTGACGTGGAATATTTGGACATTTATGGATTGGACACCATTACGCTTTGTGCCTCTACGGAGATGTAACCATAATCTTAAGTAGTAGTACCCCAGCACAAGAGGATAAAGTGGCATACACGACAACGGGTGTTGCTCGCACCTTAGTAATGTGGATGTTCACCCTTGGAGCGTGCTGAAACTCTGTGGGTAAAGACACACATTAGTACAAATGTGGGGGAACTCACTGAAAGGGCATGTCCCGTGTACTGGTGTGCCGGAAAGTGGGGGTCGCTTTCTGGAGAACTTAGTAGTTCTTGTTATTGGGTGATAGCCTTGCGGCGGATCAACTCACAGTTTTAATCCGTTGTTTTGCAT
B2: Camel alphacoronavirus (nucleic acid, listed as Alphacoronavirus sp.)
DNA: CTTAAGTGTCTTATCTATCTATAGATAGAAAAGTCGCTTTTTAGACTTTGTGTCTACTCTTCTCAACTAAACGAAATTTTTGCTACGGCCGGCATCTCTGATGCTGGAGTCGTGGCGTAATTGAAATTTCATTTGGGTTGCAACAGTTTGGAAATAAGTGCTGTGCGTCCTAGTCTAAGGGTTCTGTGTTCTGTCACGGGATTCCATTCTACAAACGCCTTACTCGAGGTTCTGTCTCGTGTTTGTGTGGAAGCAAAGTTCTGTCTTTGTGGAAACCAGTAACTGTTCCTA
B3: Cripavirus (nucleic acid, listed as Cripavirus sp.)
DNA: GCAAAATCGGTAGTACGTTAAACGTACGACCACCGATGAGACTGAAATGACACTAGTTGAGATTATTTCAATATCCTAGTGTTATAAAGTCAATATTTGTTGGTTGATCGTTTCGTCAATCGATGGCGCTGACAGCCGGAAAGACGGCAATAATAAAAACCAAGATTTAGTTTTTAAGTTTTGATTGAATTGCAAAAGCTATCTTGAATAGACAATCAAAATATTAAGTAAAGCAAAAGCTTCTTAAAGAAGACAATATTTAATTAGTTAGTAACCAAACCTCATCGTGCCCCTAAGGGTTAACCGGTTACGTAAAAGCGTAGAGGTATTAAGGTCACTGCGGAGACCTAAAATCCGCAATTTTATGTTTTGTAATGTTTTAGTTATAGACTTAGATGTAACTATAAGAGTTTATAAATACTTGTTTCAAGATTTATAGACAAGATCTGATCCTATGGATTTTAGATAACCTTCATGTTAGTGGATAGTGTGTGTACCTATCTAAACGCATAAGGCTCTTATTTCATATTTAAAGTAGGACTATGTATTACGGCGCATCTAACGGTAACGTTAGTCAAGACCGGAGAATCTCGGAATGAATTTTAGTAATTCCCAAATTTATA
B4: Bovine hepacivirus (nucleic acid, listed as Hepacivirus sp.)
DNA: CCATCGACACTCCAGGCTCACGGATTAAGTTAGGTTCCGCCGAAGCGGGCTAACCAGGCCCCTAGTAGGAGGCGCCTATCCCGTGAGCCCTTTCCCCACGGATTGAGTGGAGCTGGAGCTGGGAAGGACCGAGTACGGTCCAATCGAGAAGAACCCTGATGAACATTCCAGGCCTCTTCGGTAGATTTGGATATATCCACCAGTGAAGGCGGGGTCGTGGGTACAGGCCCCCTAGTCCACACAGCCTGATAGGGTCCTGCCGCAGGATCCGTGGGTGCGGCTGTACATGTACC
B5: Canine kobuvirus (nucleic acid, listed as Kobuvirus sp.)
DNA: TTTAAGTGTTGTGCCCAATCTCTTGACTCCTGCTGGAACCACCGACCAGTAGTGTCCAAAATGCCAGGTGGAAAATCCTCCCTTCCCCTCTGGGCTTCATGCCCGGCATCCTCCCCCCAGCCTGACGTGCCACAGGCTGTGCAAAGACCCCGCGAAAGCTGCCAAAAGTGGCAATTGTGGGTCCCCCCTTTGTCAAGGCGTCGAGTCTTTCTCCCTTAAGGCTAGTCCTGTCAGTGAACTCTGTCGGGCAACTAGTGACGCCACTGCATGCCTCCGACCTCGGCCGCGGAGTGCTGCCCCCCAAGTCATGCCCCTGACCACAAGTTGTGCTGTCTGGCAAACATTGTCTGTGAGAATGTTCCGCTGTGGCTGCCAAGCCTGGTAACAGGCTGCCCCAGTGTGCGTAATTCTCATCCAGACTTCGGTCTGGCAACTTGCTGTTAAGACATGGCGTAAGGGGCGTGTGCCAACGCCCTGGAACGAGTGTCCACTCTAATACCCCGAGGAATGCTACGCAGGTACCCCTGGCTCGCCAGGGATCTGAGCGTAGGCTAATTGTCTAAGGGTATTTTCATTTCCCACCCTCTTCTTCTTGTTCATA
B6: Canine distemper virus (nucleic acid, listed as Canine morbillivirus)
DNA: ACCAGACAAAGTTGGCTAAGGATAGTTAAATTATTGAATATTTTATTAAAAACTTAGGGTCAATGATCCTACCTTAAAGAACAAGGCTAGGGTTCAGACCTACCAAT
modifications: chemistry not fully specified
B7: Human coxsackievirus A2 (nucleic acid)
DNA: ACCTTTGTGCGCCTGTTTTATATCCCCACCCCGAGTAAACGTTAGAAGTTACGCAACCCCGATCAATAGTAGGTGTAGCACTCCAGCTGCATCGAGATCAAGCACTTCTGTCTCCCCGGACCGAGTATCAATAGACTGCTAACGCGGTTGAAGGAGAAAACGTTCGTTACCCGGCCAATTACTTCGAGAAGCCCAGTAGTGCCGTGAAAGTTGCGGAGTGTTTCGCTCAGCACTTCCCCCGTGTAGATCAGGCTGATGAGTCACCGCGATCCCCACAGGTGACTGTGGCGGTGGCTGCGTTGGCGGCCTGCCTATGGGGCAACCCATAGGACGCTCTAATACAGACATGGTGCGAAGAGCCTATTGAGCTAATTGGTAGTCCTCCGGCCCCTGAATGCGGCTAATCCTAACTGCGGAGCACATGCCCTCAAACCAGGGGGTGGTGTGTCGTAACGGGTAACTCTGCAGCGGAACCGACTACTTTGGGTGTCCGTGTTTCTTTTTATTCTTATAATGGCTGCTTATGGTGACAATTAAAGAATTGTTACCATATAGCTATTGGATTGGCCATCCGGTGACTAACAAATCGCTCATATACCAGTTTGTTGGTTTTGTTCCCTTATCACATACAGCTCATAACACCCTCTTATATTTACTACAATTGAATAGCAAGAA
B8: Botrytis cinerea mitovirus 4 RdRp (nucleic acid, listed as Mitovirus sp.)
DNA: GCCCCGCCGACCTTCCTATTTATTTCTAAATAGGAAGGTCCCGACTAGTCGGATAATTCGGTTTAACGAATTATGGTTAGATCTATTAAAGTTAAAATAGATTGAATTTCTTTCTCATCCTCCTTATTCCTATACTTTGGGAGTAAATGACAAATGTCTATCCTCAAACCGAAATGGCTTAAGTGATGAATTTGAAAGAAAGGTAGGTTTTAAGAATATAAGGCATCAATATATTATACCCTTGAATGTTAAGTGACCACGGCGTGACGATTAGGGCTATCTTAGGATAGACAGCCATCTAACGCGACAGCAGTGGAAATCAGCTTAGCATCTCAAGATCATGTATAATATATACATAACCTTACAATTATAAAACCAAACCAAAACACACTATAATTTTATATAAATTATAGAAGTATCGGACCTGGACGGTACCTACTATTAACTGATAGTAGCCAAATGCAGGAAGCTC
B9: Bovine nidovirus TCH5 (nucleic acid, listed as Bovine nidovirus)
DNA: CACCAATAGATTAGTCAAGCTGTCTATAGGCATAAACTAACCCCCAACCCCATTACCCCGGGGCCAGGTGGGCCGCCGCCTTCGGGCAAACCCGTGCGCTGGTATAATCAAGGTTCACAGCCAGATTCACTGCCGGTTAGCTAGTGGGGCGGTAGCCTGGCAAAACCCGAAGAGGTTGGAAAGGGAACTTCAGGGTAGTTTATCCTAGGCTAGCGTAGCTACAGTTCGGTCAAGATAACCGTCCTGGTGCTAGGGCTAGTAGAGACAGTGGTAACTTGGACAAGGGTCCAGGGCCACTTTAGGGAATACCCTACGGAAGGCTAGGTCCGTAAGGAAGACCCCCGCAGTTGTCCGCGGTTGAGCAGAGCTCCTGCGTAGACAAAAGGCAAAAAGTGGATTACATTCGCCTGCAGGAAAAGGCAAACGTCGTTGGAGTCGGAGCTAAAGTACTGGACGATTGATACCACGCCTGCTGCGGTAGATAAA
B10: Canine picodicistrovirus strain 209 (nucleic acid)
DNA: CGCTCTTTATACAAATCTGTCAACCCTTTGTATAACTCTAAGCCGAACAATTATAGCTAGGCTTTTTATTATATAACATTAATTAGGCATTAGCGTTGTCGCCAATCTCTTGGTAATCCTAAGGATACCTTTCCTGTTGACTAAGATGAAGCGCCTTCGGTTACCGATGCCCGGTGTCCACGAAGCCATCGTGGTCGGCCGCGTCCCCCACCTCTCCCAACTTGGACTCCATGTTTTCAGTAGGTGTAATGATTAGTATTATTGATTCTGCTCGTTCAATGTGTTTATCTTCACGATCTGGGACCCAACACATGCTTCACTCATGTTTAAATGTTGGTTCCCTCATTTTGAAGACACCCAAACCATAGAGTGCGAGAATGAGGATTTCTACTTCCATTCTGGTAACAGAAATGAATTCCTGCGTGTGTCTCGTAAATGGAATCTTTAAGAACTTCAGATAAATCGAACAATACACTAATACAAGTTGTTTTCTACCAACATGTTCAATGCGGCTAATCTGACCGTGGAGCTGTGAAGCGCTCAAACCCGAGTGTTGTATACAGTCGTAATGCGTAAGTCCATGAGGAACCGACTACTGTTACCTCTGTTGGTGTGTTTCTCCTTTCCTCTCTTTTATTATTATTTGTTATTGCAAATACTACAACTTTGATCAAC
B11: Bovine picornavirus isolate TCH6 (nucleic acid)
DNA: TTGGATCTGAGCAGGGGCCCCCTTTGGGTTGCTTTACAACTCAACTGGGGGTTAAAAAACGTCTAACCCGACACGCCAGAGGGATCTGGTTTCCTTTTATTTCTTTTACTCACCACTGGATGCAGATTGACGATAAACGTTGTTGTTTGTGACTATTGACTTGATCTGCTTCTACGGGTTTACTTTCACTGTTATACTTCTTGCTTTGTTTGGTGTTCACTGTACTTTGTCTCCTTCTACATTTCACA
B12: Botrytis cinerea mitovirus 2 RdRp (nucleic acid, listed as Mitovirus sp.)
DNA: GGAACTTTTCAGTTCCAGAAGTGGCTTTATTAAGCCTTCAAAGTTTACACTTTGAACCTGCGATTAATTCCCCATAGTGACTCTTGTTACTGTGAATTAGGAATAGTTGTAGTTCAACTTCTAATGAGGTGAACAATATAATAACTCATCTTATTAACCCTATACGTAGACAATTGTCCAAAGAGACAGTTGGAATTCTGCCAATCTGGAATGTTTGGTACGCGTAGAAGATAATAAGAGACCCTCTATTCCCCTGCCTCATGACTAAGTCATGGCCCGGGGTGTAATAGAGATACTTTTATATATTATACAATC

The data set relates to HEK293 cells. It is filed as cell-based, human. The note with it: luminescence from secreted Gluc in supernatant 24 hours after transfection of HEK293 cells; circular RNA encoding Gluc with the named IRES (UTR truncated to 675 nt).
For B1, the Expression is 4.53E+06. In the case of B2 it was 2.48E+05; in that of B3, 1.95E+05. For B4, the Expression is on record as 1.89E+05.

Molecule B5 gave an Expression of 1.48E+08. For B6, the Expression turned out to be 3.02E+05. The figure for B7 is 7.75E+07; for B8 it is 9.68E+04; for B9 it is 1.17E+05. The figure for B10 is 2.79E+06; for B11 it is 1.21E+05. Consider B12, for which the Expression came to 8.73E+04.

(Values after patent publication US20230226096A1 (Orna Therapeutics, Inc., priority 2020, published 2023).)
